T1: Arabidopsis SERRATE core (SE core, residues 194-543), hexahistidine-tagged (Arabidopsis thaliana, UniProt Q9ZVD0 194-543)
T1 sequence (looked up): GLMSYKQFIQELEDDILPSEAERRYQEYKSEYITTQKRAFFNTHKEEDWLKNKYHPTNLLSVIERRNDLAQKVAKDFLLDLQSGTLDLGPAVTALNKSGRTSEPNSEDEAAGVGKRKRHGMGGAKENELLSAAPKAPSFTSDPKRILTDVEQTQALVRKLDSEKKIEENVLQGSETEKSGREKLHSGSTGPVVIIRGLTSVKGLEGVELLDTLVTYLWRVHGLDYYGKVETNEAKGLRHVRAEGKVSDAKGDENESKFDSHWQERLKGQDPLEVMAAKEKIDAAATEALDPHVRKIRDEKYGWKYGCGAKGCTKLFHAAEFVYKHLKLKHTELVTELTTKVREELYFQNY

T2: GST-fused SE Middle domain (SE-Mid, residues 248-470) (Arabidopsis thaliana, UniProt Q9ZVD0 248-470)
T2 sequence (looked up): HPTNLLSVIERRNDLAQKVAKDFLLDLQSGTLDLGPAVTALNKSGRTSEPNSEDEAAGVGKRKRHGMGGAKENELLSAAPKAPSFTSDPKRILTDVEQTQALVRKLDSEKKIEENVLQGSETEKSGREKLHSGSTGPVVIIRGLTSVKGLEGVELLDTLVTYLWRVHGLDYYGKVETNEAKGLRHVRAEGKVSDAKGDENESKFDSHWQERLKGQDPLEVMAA


Assays:
[1] = target: T1, Arabidopsis SERRATE core (SE core, …); assay: pull-down
[2] = target: T2, GST-fused SE Middle domain (SE-Mid, …); assay: pull-down

binding result [1] | binding result [2] | Binder
binds |  | GST-fused HYL1 RBD1+2 (residues 15-172) (domain or fragment, Arabidopsis thaliana, UniProt O04492 15-172, looked up) VFKSRLQEYAQKYKLPTPVYEIVKEGPSHKSLFQSTVILDGVRYNSLPGFFNRKAAEQSAAEVALRELAKSSELSQCVSQPVHETGLCKNLLQEYAQKMNYAIPLYQCQKVETLGRVTQFTCTVEIGGIKYTGAATRTKKDAEISAGRTALLAIQSDT
binds |  | GST-fused HYL1 RBD2 (residues 100-172) (domain or fragment, Arabidopsis thaliana, UniProt O04492 100-172, looked up) GLCKNLLQEYAQKMNYAIPLYQCQKVETLGRVTQFTCTVEIGGIKYTGAATRTKKDAEISAGRTALLAIQSDT
 | binds | Non-tagged HYL1 RBD2 (residues 100-172) (domain or fragment, Arabidopsis thaliana, UniProt O04492 100-172, looked up) GLCKNLLQEYAQKMNYAIPLYQCQKVETLGRVTQFTCTVEIGGIKYTGAATRTKKDAEISAGRTALLAIQSDT
